Experimental data from patent publication US20210079088A1 (published 2021).
Changes are numbered by the printed parent chain.

T1: soluble human IL-4Rα (sIL-4Rα; PEPRO TECH, Catalog Number: 200-04R) (human, UniProt P24394 26-232)
T1 construct: Bought protein; also called shIL-4Rα; soluble hIL-4 Rα
T1 sequence: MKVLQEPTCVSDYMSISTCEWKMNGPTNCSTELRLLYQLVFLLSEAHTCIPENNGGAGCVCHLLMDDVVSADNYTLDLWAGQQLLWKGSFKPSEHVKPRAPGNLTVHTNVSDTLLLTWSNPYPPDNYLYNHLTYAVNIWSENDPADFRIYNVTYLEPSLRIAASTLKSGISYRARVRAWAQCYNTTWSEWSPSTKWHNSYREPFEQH

B1: L1020H1027 (antibody, V domains shown)
VH: EVQLVESGGGLVHPGGSLRLSCAASGFTFSRNAMFWVRQAPGKGLEWVSGIGTGGATSYADSVKGRFTISRDNAKNSLYLQMNSLRAEDTAVYYCARGRYYFPWWGQGTLVTVSS
VL: EIVLTQSPGTLSLSPGERATLSCRASQSVSSSYLAWYQQKPGQAPRLLIYGASSRATGIPDRFSGSGSGTDFTLTISRLEPEDFAVYYCQQYDHSAGWTFGQGTKVEIK
B2: L1021H1031 (antibody, V domains shown)
VH: B1 VH with H13Q, P103D, W104Y
VL: B1 VL with Y50F, T57P
B3: L1021H1027 (antibody, V domains shown)
VH: B1 VH
VL: B1 VL with Y50F, T57P
B4: L1020H1029 (antibody, V domains shown)
VH: B1 VH with H13Q, T90M
VL: B1 VL
B5: L1021H1016 (antibody, V domains shown)
VH: B1 VH with E6Q, A24G, S58N, T90M
VL: B1 VL with Y50F, T57P
B6: L1021H1029 (antibody, V domains shown)
VH: B1 VH with H13Q, T90M
VL: B1 VL with Y50F, T57P
B7: L1024H1031 (antibody, V domains shown)
VH: B1 VH with H13Q, P103D, W104Y
VL: B1 VL with S31N, Y50F, T57P
B8: L1024H1007 (antibody, V domains shown)
VH: B1 VH with E6Q, A24G, T90M, P103D, W104Y
VL: B1 VL with S31N, Y50F, T57P
B9: L1020H1031 (antibody, V domains shown)
VH: B1 VH with H13Q, P103D, W104Y
VL: B1 VL
B10: L1024H1000 (antibody, V domains shown)
VH: B1 VH with E6Q, A24G, S58N, T90M, P103D, W104Y
VL: B1 VL with S31N, Y50F, T57P
B11: L1021H1020 (antibody, V domains shown)
VH: B1 VH with E6Q, A24G, T90M
VL: B1 VL with Y50F, T57P
B12: L1021H1007 (antibody, V domains shown)
VH: B1 VH with E6Q, A24G, T90M, P103D, W104Y
VL: B1 VL with Y50F, T57P
B13: L1022H1000 (antibody, V domains shown)
VH: B1 VH with E6Q, A24G, S58N, T90M, P103D, W104Y
VL: B1 VL with S31N
B14: L1021H1000 (antibody, V domains shown)
VH: B1 VH with E6Q, A24G, S58N, T90M, P103D, W104Y
VL: B1 VL with Y50F, T57P

target: T1, soluble human IL-4Rα (sIL-4Rα; PEPRO …); experiment: ELISA, coated sIL-4Rα, culture supernatant
Method: Sample to be tested: For each antibody of the present invention, 10 μl and 2 μl of the culture supernatant of Expi293 cells expressing the antibody after transient transfection (the medium was Expi293 Expression Medium, Invitrogen, Catalog Number: A1435102; suspension culture was performed for 4 days at 100 rpm in a 8% CO2 incubator) were respectively added to 990 μl and 998 μl of PBS to prepare antibody samples to be tested of 1:100 and 1:500 dilutions.
100 μl of 100 μg/ml sIL-4Rα solution was added to 9.90 ml of PBS, mixed up and down, and then an antigen coating buffer of 1.0 μg/ml was obtained. The prepared antigen coating buffer was added to a 96-well ELISA plate (Corning) with a volume of 100 μl per well. The 96-well ELISA plate was incubated overnight in a refrigerator at 4° C. On the next day, the solution therein was discarded, and PBS containing 2% BSA was added to the 96-well ELISA plate row by row with a volume of 300 μl per well. The 96-well ELISA plate was incubated for 2 hours in a refrigerator at 4° C. Then the PBS containing 2% BSA was discarded and the plate was washed 3 times with PBST. Diluted antibodies to be tested were sequentially added to the corresponding wells, while the normal cell culture supernatants, as negative control samples, were added too. Three duplicate wells were made for each sample with a volume of 100 μl per well. The ELISA plate was wrapped with preservative film (or covered) and incubated for 1 h at 10° C. in a constant temperature incubator. Subsequently, the 96-well ELISA plate was taken out, and the solution therein was discarded. After washing with PBST for 3 times, TMB solution (Solarbio, Catalog Number: PR1200) was added to the 96-well ELISA plate row by row with a volume of 100 μl per well. The 96-well ELISA plate was placed at room temperature for 5 minutes, and 2 M H2SO4 solution was added in immediately to terminate the reaction. The 96-well ELISA plate was placed in flexstation 3 (Molecular Devices), the values of OD450 were read, and the data were collected, calculated and analyzed. Results were expressed relative to the affinity of control antibody 1.

OD450/OD450 Control antibody 1 | Binder
0.4 ratio to control antibody 1 | B1
0.9 ratio to control antibody 1 | B2
0.29 ratio to control antibody 1 | B3
1.01 ratio to control antibody 1 | B4
0.63 ratio to control antibody 1 | B5
1 ratio to control antibody 1 | B6
0.9 ratio to control antibody 1 | B7
0.23 ratio to control antibody 1 | B8
1.12 ratio to control antibody 1 | B9
0.69 ratio to control antibody 1 | B10
0.24 ratio to control antibody 1 | B11
0.44 ratio to control antibody 1 | B12
0.16 ratio to control antibody 1 | B13
2.42 ratio to control antibody 1 | B14
